PMC3950512

What was measured:
Assay in all cases: purified protein
Conditions in all cases: 25°C, 50 mM Tris-HCl pH 8.0, 10 mM MgCl2
[1] = system: C[N+]1(C)CCC[C@@H]1C(=O)[O-]
[2] = system: C[N+]1(C)C[C@H](O)C[C@H]1C(=O)[O-]
[3] = system: C[N+]1(C)CCC[C@@H]1C(=O)[O-]; type: biochemical, Cereibacter sphaeroides

| Substance | Km [1] [mM] | kcat [1] [s⁻¹] | kcat/Km [1] [M⁻¹ s⁻¹] | Km [2] [mM] | kcat [2] [s⁻¹] | kcat/Km [2] [M⁻¹ s⁻¹] | Km [3] [mM] | kcat [3] [s⁻¹] | kcat/Km [3] [M⁻¹ s⁻¹] |
| --- | --- | --- | --- | --- | --- | --- | --- | --- | --- |
| pdHpbD (Paracoccus denitrificans PD1222) | 7.3 ± 3 | 28 ± 6 | 3800 |  |  |  |  |  |  |
| rsHpbD (Cereibacter sphaeroides 2.4.1) |  |  |  | 16 ± 7 | 70 ± 7 | 4300 | 11 ± 4 | 4.3 ± 0.6 | 390 |
